According to patent publication US20040166544A1 (published 2004):
Several values for one entry are separate records, joined by “and”; a condition that tells them apart may be missing. Identical values can stand only once.

Legend:
[1] = molecular target: T1, c-Met/Fc Chimera (R&D Systems, catalog # 358-MT-100) (human, UniProt P08581 25-932); experiment: competition ELISA: displacement of biotinylated HGF from plate-coated c-Met/Fc chimera, Fab, n = 2
T1 construct: extracellular domain; Bought reagent; also called human c-Met-Fc fusion protein; recombinant c-Met protein; Fc part of the bought chimera not given
Procedure: (§1) 96-well Fluoronunc plates were coated with 50 ul of 0.5 ug/ml c-Met/Fc Chimera (R&D Systems, Minneapolis Minn., catalog # 358-MT-100) in phosphate buffered saline (PBS) and the plates were incubated overnight at room temperature. Wells were washed three times with washing buffer (PBS+0.1% Tween 20), blotting the plates on paper towels between each wash. Nonspecific binding in the wells was blocked by the addition of 250 ul of blocking buffer (3.0% milk (Carnation) in PBS) to each well and incubated at room temperature for two hours.
(§2) The c-Met antibodies were diluted in reagent buffer (PBS, 0.5% BSA, 0.05% Tween-20) and titrations were performed in 96 well polypropylene plates. Biotinylated HGF (0.4 ug/ml) (R&D Systems, biotinylated with Pierce #21335 as per manufacturer's instructions) was added to each well. 50 ul of the dilutions were transferred into the Fluoronunc plates containing human c-Met-Fc fusion protein (R&D Systems, #) and the plates were incubated for two hours at room temperature. The plates were washed three times with wash buffer and blotted onto paper towels. 50 ul of europium-labeled Streptavidin (Wallac Perkin Elmer) diluted 1:1000 in Delfia assay buffer (Wallac Perkin Elmer) was added per well and the plates were incubated for one hour at room temperature. The plates were washed seven times with Delfia wash buffer (Tris buffered saline (TBS) supplemented with 0.1% Tween-20) and blotted onto paper towels. 100 ul Delfia enhancer solution (Wallac Perkin Elmer) was added to each well and the plates incubated for 5 minutes on a plate shaker at room temperature. Plates were read on a fluorescence plate reader and analyzed using GraphPad Prism software (GraphPad Software, San Diego, Calif.).
(§3) C-Met antibodies 1A3.3.13 (#HB-11894, ATCC Hybridoma) and 5D5.11.6 (#HB-11895, ATCC Hybridoma) were used as positive controls. MOPC-21 (#M-7894, Sigma) was used as an IgG isotype control and HB-94 (#HB-94, ATCC Hybridoma) was converted into a Fab fragment and used as a Fab isotype control. NK4-Elastase is a kringle to kringle 4 fragment resulting from digesting intact HGF purified from S-114 cells with elastase (Date et al., FEBS Lett. 420:1-6 ([…]).

[2] = molecular target: T1, c-Met/Fc Chimera (R&D Systems, catalog …); experiment: competition ELISA: displacement of biotinylated HGF from plate-coated c-Met/Fc chimera, IgG, n = 2
Procedure: as §1, §2, §3

[3] = molecular target: T2, biotinylated c-Met-Fc (R&D Systems, #358-MT-100/CF, 5.1 biotin per c-Met molecule) (human, UniProt P08581 25-932, biotinylated, 5.1 biotin per c-Met molecule (Pierce #21335)); experiment: SPR (BIAcore), biotinylated c-Met-Fc captured on streptavidin chip, IgG as analyte, bivalent model
T2 construct: extracellular domain; Captured on a streptavidin (SA) chip for the BIAcore study of the IgGs; Fc part of the bought chimera not given
Procedure: The binding properties (on-rate, off-rate and affinity) of c-Met monoclonal antibodies (IgG or Fab versions) with human c-Met extracellular domain was determined using surface plasmon resonance, or BLAcore, technology. For the binding studies with IgG, a low density (<1 ng/mm2) of c-Met-Fc (R&D Systems, #358-MT-100/CF) containing 5.1 biotin per c-Met molecule (prepared with Pierce #21335 as per manufacturer's instructions) was captured onto a SA chip precoated with Streptavidin (BIAcore Inc.). A streptavidin flow cell without adsorbed c-Met-Fc was used as a control cell for non-specificbinding. The antibody sample to be analyzed was prepared in HEPES buffer (0.15M NaCl, 10 mM HEPES, 3.4 mM EDTA, 0.005% surfactant P-20, pH 7.4) to form a set of solutions varied in concentration from 0.78 nM to 100 nM. The HEPES buffer used as the running solution was set at a flow rate of 50 ul/min. Each sample solution was injected over the two flow cells for three minutes, followed by 5 minutes of dissociation. The flow cells were then regenerated with 4.5M MgCl₂ for one minute to remove the bound antibody for the next cycle of binding study. The net sensorgrams (subtraction of sensorgrams from the negative control flow cell as well as that from the buffer blank) obtained for each set of samples were processed simultaneously in a global fitting using a bivalent binding model of the BIAevaluation software program equipped with the system. The on-rate (Kₐ), off-rate (Kd) and binding affinity (KD) were determined from the fitting with KD equal to kd/kₐ.

[4] = molecular target: T1, c-Met/Fc Chimera (R&D Systems, catalog …); experiment: SPR (BIAcore), c-Met-Fc captured on protein A CM5 chip, Fab as analyte, 1:1 Langmuir model
Procedure: For the binding study of Fab fragments derived from antibodies of the invention, a high density (>2 ng/mm²) of protein A was first immobilized covalently onto a CM5 sensorchip using EDC/NHS amine coupling chemistry [. The flow cell containing c-Met-Fc captured by the protein A was used as the positive control while a flow cell containing only protein A was used as the negative control. The Fab sample to be analyzed was as above for antibodies to form a set of solutions with concentration ranged from 3.9 nM to 500 nM. The HEPES buffer used as the running solution was set at a flow rate of 50 ul/min. For each cycle of binding study, low density (<1 ng/mm²) of c-Met-Fc was captured first onto the positive flow cell. Each sample solution was then injected over the two flow cells (one negative and one positive in series) for three minutes followed by 5 minutes of dissociation. The flow cells were then regenerated with 4.5M MgCl₂ for one minute to remove the bound c-Met-Fc/Fab complexes for the next cycle of binding. The net sensorgrams (subtraction of sensorgrams from the negative control flow cell as well as that from the buffer blank) obtained from the set of samples were fitted simultaneously in a global fitting using a Langmuir 1:1 binding model of the BIAevaluation program equipped with the system. The on-rate (Kₐ), off-rate (Kd) and binding affinity (KD) were determined from the fitting with KD equal to kd/kₐ.

[5] = molecular target: c-Met (endogenous, on human cell lines 184B5, HCT-116, DU-145 and NCI H441) (human, UniProt P08581 25-1390); experiment: cell-based or functional assay

Binder	IC50 [1]	IC50 [2] [nM]	Kd [3] [nM]	koff [3] [s⁻¹]	kon [3] [M⁻¹ s⁻¹]	other results
c-Met 12075 Fab (Fab, V domains shown, VH and VL limits counted as for the IgG; also called Fab fragment derived from c-Met antibody 12075) VH: QVQLVQSGPEVKKPGASVEVSCKASGYTFTGDYMHWVRQAPGQGPEWMGWINPQTGVTKYAQKFQGRVTMARDTSINTAYMELRGLRSDDTAVYYCVREDHNYDLWSAYNGLDVWGQGTLVTVSS VL: QSVLTQPPSVSAAPGQKVTISCSGSSSNIGNNHVSWYQQLAGTAPKLLIFDNDKRPSGIPDRFSGSKSGTSATLGITGLQTGDEADYYCGTWDKSPTDIYVFGSGTKLTVLG	> 125 nM					
c-Met IgG antibody 12136 (antibody, V domains shown, IgG of scFv PGIA-4-A8; also called 12136 IgG; IgG of scFv PGIA-04-A8 (PGIA-4-A8)) VH: QVQLQESGPGLVKPSETLSLTCNVSGGSIRNYFWSWIRQPPGQGLEYIGYIYYSGTTDYNPSLKGRVTISLDTSKTQFSLKLNSVTAADTAFYYCVRGPNKYAFDPWGQGTLVTVSS VL: SYELTQPPSVSVSPGQTASITCSGDKLGDKFASWYQQKAGQSPVLVIYRDTKRPSGIPERFSGSNSGNTATLTISGTQAMDEADYYCQAWDSSTAVFGTGTKVTVLG		1	0.8	0.000229	294000	
c-Met 12136 Fab (Fab, V domains shown, VH and VL limits counted as for the IgG; also called Fab fragment derived from c-Met antibody 12136) VH: QVQLQESGPGLVKPSETLSLTCNVSGGSIRNYFWSWIRQPPGQGLEYIGYIYYSGTTDYNPSLKGRVTISLDTSKTQFSLKLNSVTAADTAFYYCVRGPNKYAFDPWGQGTLVTVSS VL: SYELTQPPSVSVSPGQTASITCSGDKLGDKFASWYQQKAGQSPVLVIYRDTKRPSGIPERFSGSNSGNTATLTISGTQAMDEADYYCQAWDSSTAVFGTGTKVTVLG						Kd [4]: 6 nM; koff [4]: 0.00101 s⁻¹; kon [4]: 168000 M⁻¹ s⁻¹
c-Met IgG antibody 12123 (antibody, V domains shown, IgG of scFv PGIA-3-B2; The VL reverse cloning primer RH62 codes ...TVLG whereas the scFv entry ends ...TVLS; also called 12123 IgG; IgG of scFv PGIA-03-B2 (PGIA-3-B2)) VH: QVQLQESGPGLVKPSATLSLTCAVSGGSISSNHWWSWVRQSPGKGLEWIGEIYTYGGANYNPSLKSRVDISMDKSKNQFSLHLSSVTAADTAVYYCGRHLTGYDCFDIWGQGTLVTVSS VL: QAVLTQPSSVSGAPGQRVTISCTGSSSNIGAGYDVHWYQQLPGTAPKLLIYGNSNRPSGVPDRFSGSKSGTSASLAITGLQAEDEADYYCQSYDSSLSGVFGTGTQLTVLS		0.5	9.7	0.00329	338000	scatter assay on DU-145 cells, mean object area, agonist (alone), 100 nM IgG; the smaller the number, the more scattering [5]: 234 mean object area; scatter assay on DU-145 cells, mean object area, antagonist (w/30 pM HGF), 100 nM IgG; the smaller the number, the more scattering [5]: 226 mean object area
c-Met 11978 Fab (Fab, V domains shown, VH and VL limits counted as for the IgG) VH: not shown VL: NFMLTQPHSVSESPGKTVTISCTRSSGSIAFDYVQWYQQRPGSAPTTVIYEDNQRPSGVPDRFSASIDSSSNSASLTISALKTEDEADYYCQSYDNSNSWVFGGGTKLTVLG	65.9 nM and > 125 nM					
c-Met IgG antibody 11986 (antibody, V domains shown, IgG of scFv PGIA-3-B1; also called 11986 IgG; IgG of scFv PGIA-03-B1 (PGIA-3-B1)) VH: EVQLVQSGAEVKKPGATLKVSCKVSAYTFTDYSMHWVQQAPGKGLKWMGLIDLEDGNTIYAEEFQDRVTITADTSTDTAYMDLSSLRSEDTAVFYCAISPLRGLTADVFDVWGQGTLVTVSS VL: QSALTQPASASGSPGQSITISCTGTSSDIGRYDFVSWYQRQPGKAPKLMIYDVINRPSGVSSRFSGSKSGNTASLTISGLQAEDEADYYCSSYAGSTTLYVFGTGTKLTVLG		0.52				
c-Met 11986 Fab (Fab, V domains shown, VH and VL limits counted as for the IgG) VH: EVQLVQSGAEVKKPGATLKVSCKVSAYTFTDYSMHWVQQAPGKGLKWMGLIDLEDGNTIYAEEFQDRVTITADTSTDTAYMDLSSLRSEDTAVFYCAISPLRGLTADVFDVWGQGTLVTVSS VL: QSALTQPASASGSPGQSITISCTGTSSDIGRYDFVSWYQRQPGKAPKLMIYDVINRPSGVSSRFSGSKSGNTASLTISGLQAEDEADYYCSSYAGSTTLYVFGTGTKLTVLG	80 nM					
c-Met IgG antibody 12133 (antibody, V domains shown, IgG of scFv PGIA-4-A5; also called 12133 IgG; IgG of scFv PGIA-04-A5 (PGIA-4-A5)) VH: QVQLQESGPGLVKPSGTLSLTCAVSGGSISTSDWWSWVRRPPGKGLEWIGEIYHSGSTNYHPSLKSRVTISLDKSKNQFSLKLSSVTAADTAVYYCAREGGHSGSYPLDYWGRGTLVTVSS VL: NFMLTQPHSVSESPGKTATISCTGSGGSIARSYVQWYQQRPGRAPSIVIYEDYQRPSGVPDRFSGSIDSSSNSASLTITGLKTDDEADYYCQSSDDNNNVVFGGGTKVTVLG		0.58	6	0.000598	98900	scatter assay on DU-145 cells, mean object area, agonist (alone), 100 nM IgG; the smaller the number, the more scattering [5]: 241 mean object area; scatter assay on DU-145 cells, mean object area, antagonist (w/30 pM HGF), 100 nM IgG; the smaller the number, the more scattering [5]: 230 mean object area
c-Met 12119 Fab (Fab, V domains shown, VH and VL limits counted as for the IgG; also called Fab fragment derived from c-Met antibody 12119) VH: QLQLQESGPGLVKPSGTLSLTCAVSGGSISTSDWWSWVRRPPGKGLEWIGEIYHSGSTNYHPSLKSRVTISLDKSKNQFSLKLSSVTAADTAVYYCAREGGHSGSYPLDYWGRGTLVTVSS VL: NFMLTQPHSVSESPGKTVTISCARSSGSIASNYVQWYQQRPGSSPTTLIYEDRQRPSGVPDRFSGSIDSSSNSASLTISGLKTEDEADYYCQSYDSSDHVVFGGGTKLTVLG	10.7 nM					
c-Met 12133 Fab (Fab, V domains shown, VH and VL limits counted as for the IgG; also called Fab fragment derived from c-Met antibody 12133) VH: QVQLQESGPGLVKPSGTLSLTCAVSGGSISTSDWWSWVRRPPGKGLEWIGEIYHSGSTNYHPSLKSRVTISLDKSKNQFSLKLSSVTAADTAVYYCAREGGHSGSYPLDYWGRGTLVTVSS VL: NFMLTQPHSVSESPGKTATISCTGSGGSIARSYVQWYQQRPGRAPSIVIYEDYQRPSGVPDRFSGSIDSSSNSASLTITGLKTDDEADYYCQSSDDNNNVVFGGGTKVTVLG						Kd [4]: 8.8 nM; koff [4]: 0.00245 s⁻¹; kon [4]: 280000 M⁻¹ s⁻¹
